In US20200199244A1 (published 2020):
Several values for one entry are separate records, joined by “and”; a condition that tells them apart may be missing. Equal values may be shown once.

Biological target: T1, human CD40 (BMS, CY24FEB06-01) (human, UniProt P25942 21-193)
T1 construct: Soluble reagent of the bead and ELISA RBA; It is detected with an anti-human IgG (Fc) mAb, so it may be a CD40-Ig fusion
Test: ELISA RBA, competition with IZ-CD40L;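 further: Neutravidin-coated 384-well plate, dAb–human CD40 complex bound for 2 h at room temperature, absorbance read at 450 nm after HCl stop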
Procedure: Clear walled High Bind, 384-well plates (Corning, UK) were coated with 25 μl of 1 μg/ml Neutravidin in 0.2 M carbonate-bicarbonate buffer, pH 9.4 overnight at 4° C. The following day, assay plates were washed with 0.1% (v/v) Tween PBS buffer, blocked with 1% (w/v) BSA in PBS for 1 hour at room temperature and washed again. […] Following washing of the assay plate, the dAb:human CD40 complex was incubated in the assay plate at room temperature for 2 hours with gentle agitation. […] Absorbance signal was measured using a SpectraMax® M5e plate reader (Molecular Devices) at 450 nm following neutralization with 1M HCl solution.

T1 sequence (P25942 21-193 limits assumed): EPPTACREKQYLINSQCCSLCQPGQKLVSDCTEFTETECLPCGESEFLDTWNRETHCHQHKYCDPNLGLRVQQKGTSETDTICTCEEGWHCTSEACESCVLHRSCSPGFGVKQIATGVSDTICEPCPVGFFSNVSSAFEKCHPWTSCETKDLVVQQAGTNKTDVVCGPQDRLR

| Binder | EC50 |
| --- | --- |
| BMS3h-193-12 (other, dAb, single VK) VL: DIQMTQSPSSLSASVGDRVTITCRASQTIERRLNWYQQKPGKAPKLLIYLASRLQSGVPSRFSGSGSGTDFTLTISSLQPEDFATYYCHQYESPPLTFGQGTKVEIKR | 200 nM |
| BMS3h-193-18 (other, dAb, single VK) VL: DIQMTQSPSSLSASVGDRVTITCRASQTIGRRLNWYQQKPGKAPKLLIYLASRLQSGVPSRFSGSGSGSDFTLTISSLQPEDFATYYCHQYESPPLTFGQGTKVEIKR | 100 nM |
| BMS3h-193-25 (other, dAb, single VK) VL: DIQMTQSPSSLSASVGDRVTITCRASQTIERRLNWYQQKPGKAPRLLIYLATRLQSGVPSRFSGSGSGTDFTLTISSLQPEDFATYYCHQYESPPLTFGQGTKVEIKR | 140 nM |
| BMS3h-193-7 (other, dAb, single VK) VL: DIQITQSPSSLSASVGDRVTITCRASQTIERRLNWYQQKPGKDPKLLIYLASRLQSGVPSRFSGSGSGTDFTLTISSLQPEDFATYYCHQYESPPLTFGQGTKVEIKR | 300 nM |
| BMS3h-193-10 (other, dAb, single VK) VL: DIQMSQSPSTLSASVGDRVTITCRASQTIERRLNWYQQKPGKAPKLLIYLASRLQSGVPSRFSGSGSGTDFTLTISSLQPEDFATYYCHQYESPPLMFGQGTKVEIKR | 200 nM |
| BMS3h-56-18 (other, dAb, single VH) VH: EVQLLESGGGLVQPGGSLRLSCAASGFTFRDYEMWWVRQAPGKVLERVSAINPQGTRTYYADSVKGRFTISRDNSKNMLYLQMNSLRAEDTAVYYCAKLPFTFEDWGQGTLVTVSS | 6.5 nM |
| BMS3h-198-32 (other, dAb, single VH) VH: EVQLLESGGGLVQPGGSLRLSCAASGFTFAGYEMWWFRQAPGKGLERVSAISGSGGSTYYADSVKGRFTISRDNSKNTLYLQMNSLRAEDTAVYYCAKDPYSFDNWGQGTLVTVSS | 24.7 nM |
| BMS3h-56-29 (other, dAb, single VH) VH: EVQLLESGGGLVQPGGSLRLSCAASGFTFAGYELWWVRQAPGKGLERVSAINPQGTRTYYADSVMGRFTISRDNSKNTLYLQMNSLRAEDTAVYYCAKLPFMFDDRGQGTLVTVSS | 9.7 nM |
| BMS3h-56-20 (other, dAb, single VH) VH: EVQLLESGGGLVQPGGSLRLSCAASGFTFRDYEMWWVRQAPGKGLERVSAINPQGTRTYYADSVKGRFTISRDNSKNTLYLQMNSLRAEDTAVYYCTKLPFTFEDWGQGTLVTVSS | 6.8 nM |
| BMS3h-56-24 (other, dAb, single VH) VH: EVQLLESGGGLVQPGGSLRLSCAASGFTFRDYEMWWVRQAPGKGLERVSAINPQGTRTYYADSVMGRFTISRDNSKNTLYLQMNSLRAEDTAVYHCAKEPYSYDYWGQGTLVTVSS | 11.7 nM |
| BMS3h-56-19 (other, dAb, single VH) VH: EVQLLESGGGLVQPGGSLRLSCAASGFTFRDYEMWWVRQAPGKGLERVSAINPQGTRTYYADSVKGRFTISRDNSKNTLYLQMNSLRAEDTAVYHCAKLPFTFEDWGQGTLVTVSS | 5.5 nM and 5.1 nM |
| BMS3h-56-30 (other, dAb, single VH) VH: EVQLLESGGGLVQPGGSLRLSCAASGFTFAGYEMWWFRQAPGKGLERVSAINPQGTRTYYADSVMGRFTISRDNSKNTLYLQMNSLRAEDTAVYYCAKLPFTFDDWGQGTLVTVSS | 24.2 nM |
| BMS3h-198-33 (other, dAb, single VH) VH: EVQLLESGGGLVQPGGSLRLSCAASGFTFAGYEMWWVRQAPGKGLERVSAISGSGGSTYYADSVKGRFTISRDDSKNTLYLQMNSLRAEDTAVYYCAKEPYSYDYWGQGTLVTVSS | 8.7 nM |
| BMS3h-56-25 (other, dAb, single VH) VH: EVQLLESGGGLVQPGGSLRLSCAASGFTFRDYEMWWVRRAPGKGLERVSAINPQGTRTYYADSVMGRFTISRDNSKNTLYLQMNSLRAEDTAVYYCAKLPFTFDDWGQGTLVTVSS | 5.5 nM |
| BMS3h-56-28 (other, dAb, single VH) VH: EVQLLESGGGLVQPGGSLRLSCAASGFTFAGYELWWVRQAPGKGLERVSAINPQGTRTYYADSVMGRFTISRDNSKNTLYLQMNSLRAEDTAVYYCAKLPFTFDDWGQGTLVTVSS | 8.9 nM |
| BMS3h-198-31 (other, dAb, single VH) VH: EVQLLESGGGLVQPGGSLRLSCAASGFTFAGYEMWWVRQAPGKGLERVSAISGSGGSTYYADSVKGRFTISRDNSKNTLYLQMNSLRAEDTAVYHCAKEPYSYDYWGQGTLVTVSS | 6.1 nM |
| BMS3h-198-10 (other, dAb, single VH) VH: EVQLLESGGGLVQPGGSLRLSCAASGSTIAGYEMWWVRQAPGKGLERVSAISGSGGSTYYADSVKGRFTISRDDSKNTLYLQMNSLRAEDTAVYYCAKDPYSFDYWGQGTLVTVSS | 35 nM |
| BMS3h-198-19 (other, dAb, single VH) VH: EVQLLESGGGLVQPGGSLRLSCAASGFTFAGYELWWVRQAPGKGLERVSAISGSGGSTYYADSVKGRFTISRDDSKNTLYLQMNSLRAEDTAVYYCARDPYSFDYRGQGTLVTVSS | 7.9 nM |
| BMS3h-198-37 (other, dAb, single VH) VH: EVQLLESGGGLVQPGGSLRLSCAASGFTFAGYELWWVRQAPGKGLERVSAISGSGGSTYYADSVKGRFTISRDDSKNTLYLQMNSLRAEDTAVYYCAKDPYSFDYRGQGTLVTVSS | 15.1 nM |
| BMS3h-198-11 (other, dAb, single VH) VH: EVQLLESGGGLVQPGGSLRLSCAASGFTFAGYEMWWVRQAPGKGLERVSAISGSGGSTYYADSVKGRFTISRDDSKNTLYLQMNSLRAEDTAVYYCARDPYSFDYWGQGTLVSVSS | 20 nM |

Second part, the binder after the results:

| EC50 | Binder |
| --- | --- |
| 100 nM | BMS3h-193-27 (other, dAb, single VK) VL: DIQMTQSPSSLSASVGDRVTITCRASQTIGRRLNWYQQKPGKAPKLLIYLASRLQSGVPSRFSGSGSGTDFTLTISSLQPEDFATYYCHQYESPPLTFGQGTKVEIKR |
| 300 nM | BMS3h-193-11 (other, dAb, single VK) VL: DIQMTQSPSSLSASVGDRVTITCRASQTIERRLNWYQQKPGKDPKLLIYLASRLQSGVPSRFSGSGSGTDFTLTISSLQPEDFATYYCHQYESPPLTFGQGTKVEIKR |
| 290 nM and 116 nM | BMS3h-193-30 (other, dAb, single VK) VL: DIQMTQSPSSLSASVGDRVTITCRASQSIERRLNWYQQKPGKAPKLLIYLASRLQSGVPSRFSGSGSGTDFTLTISSLQPEDFATYYCHQYESPPLTFGQGTKVEIKR |
| 100 nM | BMS3h-193-19 (other, dAb, single VK) VL: DIQMTQSPSSLSASVGDRVTITCRASQTIERRLNWYQQKPGKAPKLLIYLASRLQSGVPSRFSGSGSGTEFTLTISSLQPEDFATYYCHQYESPPLTFGQGTKVEIKR |
| 100 nM | BMS3h-193-26 (other, dAb, single VK) VL: DIQMTQSPSSLSASVGDRVTITCRASQPIERRLNWYQQKPGKAPKLLIYLASRLQSGVPSRFSGSGSGTDFTLTISSLQPEDFATYYCHQYESPPLTFGQGTKVEIKR |
| 20 nM | BMS3h-198-9 (other, dAb, single VH) VH: EVQLLESGGGLVQPGGSLRLSCAASGFTFAGYEMWWVRQAPGKGLERVSAISGSGGSTYYADSVKGRFTISRDDSKNTLYLQMNSLRAEDTAVYYCAKEPYSFDYWGQGTLVTVSS |
| 5 nM | BMS3h-56-26 (other, dAb, single VH) VH: EVQLLESGGGLVQPGGSLRLSCAASGFTFRDYEMWWVRRAPGKGLERVSAINPQGTRTYYADSVMGRFTISRDNSKNTLYLQMNSLRAEDTAVYYCAKLPFMFDDRGQGTLVTVSS |
| 20 nM | BMS3h-198-17 (other, dAb, single VH) VH: EVQLLESGGGLVQPGGSLRLSCAASGFTFAGYEMWWVRQAPGKGLERVSAISGSGGSTYYADSVKGRFTISRDDSKNTLYLQMNSLRAEDTAVYYCARDPYSFDYWGQGTLVTVSS |
| 6.5 nM | BMS3h-56-22 (other, dAb, single VH) VH: EVQLLESGGGLVQPGGSLRLSCAASGFTFRDYEMWWVRQAPGKGLERVSAINPQGTRTYYADSVKGRFTISRDNSKNTLYLQMNSLRADDTAVYHCTKLPFIFEYWGQGTLVTVSS |
| 61 nM | BMS3h-56-31 (other, dAb, single VH) VH: EVQLLESGGGLVQPGGSLRLSCAASGFTFAGYEMWWFRQAPGKGLERVSAINPQGTRTYYADSVMGRFTISRDNSKNTLYLQMNSLRAEDTAVYYCAKLPFMFDDRGQGTLVTVSS |
| 6.5 nM and 6.2 nM | BMS3h-56-21 (other, dAb, single VH) VH: EVQLLESGGGLVQPGGSLRLSCAASGFTFRDYEMWWVRQAPGKGLERVSAINPQGTRTYYADSVKGRFTISRDNSKNTLYLQMNSLRAEDTAVYYCLKLPFTFEDWGQGTLVTVSS |
| 24.5 nM | BMS3h-56-23 (other, dAb, single VH) VH: EVQLLESGGGLVQPGGSLRLSCAASGFTFRDYEMWWVRQAPGKGLERVSAINPQGTRTYYADSVMGRFTISRDNSKNTLYLQMNSLRAEDTAVYYCAKEPYSFDSWGQGTLVTVSS |
| 32.6 nM | BMS3h-198-34 (other, dAb, single VH) VH: EVQLLESGGGLVQPGGSLRLSCAASGFTFAGYEMWWVRQAPGKGLERVSAISGSGGSTYYADSVKGRFTISRDDSKNTLYLQMNSLRAEDTAVYYCAKDPYSFDNWGQGTLVTVSS |
| 10 nM | BMS3h-198-22 (other, dAb, single VH) VH: EVQLLESGGGLVQPGGSLRLSCAASGFTFAGYEMWWVRQAPGKGLERVSAISGSGGSTYYADSVKGRFTISRDDSKNTLYLQMNSLRAEDTAVYYCAKEPYSYDYWGHGTLVTVSS |
| 9 nM | BMS3h-198-14 (other, dAb, single VH) VH: EVQLLESGGGLVQPGGSLRLSCAASGFTFAGYEMWWFRQAPGKGLERVSAISGSGGSTYYADSVKGRFTISRDDTKNTLYLQMNSLRAEDTAVYYCAKDPYSFDYWRQGTLVTVSS |
